How the values were obtained:
[1] = target: NanoLuc:VEGFR2 fusion on cells (UniProt P35968); test: FRET or BRET; saturation binding on live HEK293T cells transiently expressing a NanoLuc:RTK fusion; increasing concentrations of DY605-labeled growth factor with and without excess (0.5 µM) unlabeled equivalent; 1.5 h at room temperature, OptiMEM; apparent affinities (EC50)
[2] = target: NanoLuc:VEGFR2 fusion on cells (UniProt P35968)

Sequence of NanoLuc:VEGFR2 fusion on cells (P35968 20-1356): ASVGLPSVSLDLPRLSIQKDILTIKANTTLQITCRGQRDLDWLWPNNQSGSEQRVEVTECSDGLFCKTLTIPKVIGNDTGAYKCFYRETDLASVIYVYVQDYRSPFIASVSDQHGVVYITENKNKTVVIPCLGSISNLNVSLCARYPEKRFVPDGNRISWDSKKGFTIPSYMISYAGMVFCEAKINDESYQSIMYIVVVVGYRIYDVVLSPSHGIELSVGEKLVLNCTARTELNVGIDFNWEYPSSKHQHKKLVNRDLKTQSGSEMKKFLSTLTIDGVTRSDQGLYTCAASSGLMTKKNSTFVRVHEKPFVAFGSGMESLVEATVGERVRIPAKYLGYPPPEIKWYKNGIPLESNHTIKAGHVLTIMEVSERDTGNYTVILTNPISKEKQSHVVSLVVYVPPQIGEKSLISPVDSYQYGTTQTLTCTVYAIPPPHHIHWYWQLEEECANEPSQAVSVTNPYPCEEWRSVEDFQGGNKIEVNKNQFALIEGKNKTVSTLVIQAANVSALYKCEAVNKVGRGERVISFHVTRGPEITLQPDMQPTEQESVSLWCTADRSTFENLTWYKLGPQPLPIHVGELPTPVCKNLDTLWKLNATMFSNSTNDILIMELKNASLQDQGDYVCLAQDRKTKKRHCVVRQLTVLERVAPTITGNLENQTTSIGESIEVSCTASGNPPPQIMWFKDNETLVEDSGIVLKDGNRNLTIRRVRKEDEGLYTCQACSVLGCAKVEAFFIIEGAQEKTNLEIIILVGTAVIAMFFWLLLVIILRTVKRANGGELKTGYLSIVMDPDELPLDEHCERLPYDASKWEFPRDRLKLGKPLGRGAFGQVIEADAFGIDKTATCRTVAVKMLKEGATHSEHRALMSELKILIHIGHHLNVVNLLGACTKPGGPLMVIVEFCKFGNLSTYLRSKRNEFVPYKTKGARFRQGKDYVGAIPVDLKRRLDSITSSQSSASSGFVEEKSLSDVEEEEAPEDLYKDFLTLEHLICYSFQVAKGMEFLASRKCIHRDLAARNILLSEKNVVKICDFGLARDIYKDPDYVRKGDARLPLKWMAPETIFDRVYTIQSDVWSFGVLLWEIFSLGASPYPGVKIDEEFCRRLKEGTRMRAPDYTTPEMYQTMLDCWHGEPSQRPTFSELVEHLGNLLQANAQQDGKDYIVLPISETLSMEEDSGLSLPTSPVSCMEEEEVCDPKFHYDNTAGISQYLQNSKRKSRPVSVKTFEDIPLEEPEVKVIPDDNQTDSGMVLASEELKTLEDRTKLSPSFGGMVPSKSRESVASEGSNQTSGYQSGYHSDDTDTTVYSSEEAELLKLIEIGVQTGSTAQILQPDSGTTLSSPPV

Substance	EC50 [1] [nM]	NFAT-luciferase reporter, 6 h stimulation; EC50 as fold against the unlabeled counterpart (printed as 'fold lower', weaker response) [2] [fold]
VEGF165a homodimer labeled with 2-fold molar excess of DY605-NHS-ester (ligand)	1.2	> 120
CBT-labeled VEGF165a homodimer (vascular endothelial growth factor isoform VEGF165a labeled with DY605-PEG-CBT on the N-terminal cysteine) (ligand)	0.045	–
VEGF165a homodimer labeled with 5-fold molar excess of DY605-NHS-ester (ligand)	12	> 120

Reference: publication PMC6504924
